Measured values taken from paper PMC6281676 (Scientific Reports, 2018).

Assays:
[1] = 15 min after 30th intranasal administration of exendin-4 1 mg/mL, L-penetratin 2 mM and insulin 8 IU/mL (1 IU/kg)
Description: (§1) Every morning at 10 AM, mice were anesthetized by an i.p. injection of sodium pentobarbital (50 mg/kg), and restrained in a supine position. […] The untreated control SAMP8 and SAMR1 received intranasal administration of only the vehicle (PBS pH 6.0). After each administration, mice were kept in a supine position for 15 min and then returned to their cages.

[2] = up to 60 min after 29th intranasal administration of exendin-4 and insulin with L-penetratin; tail vein, glucose meter
Description: as §1
Blood was obtained from the tail vein before and 15, 30, and 60 min after administration, and the blood glucose concentration was measured using a glucose meter (One Touch Ultra View, Johnson & Johnson K.K., Tokyo, Japan).

[3] = tested on: hippocampal neuronal cells; experiment: Immunohistological staining of brain specimens with anti-NeuN antibody (neuronal cell counts); type: in vivo, SAMP8 mice; settings: after 30th intranasal administration of exendin-4 ± L-penetratin ± insulin; 38 weeks of age; n = 4–8
Description: At 15 min after administration, blood samples were taken from the left jugular vein. Immediately after blood withdrawal, the abdominal cavity was opened, and the intravascular content in the brain was flushed by perfusion of ice-cold PBS (pH 7.4) into the left ventricle of the heart at 5.5 mL/min for 5 min using a peristaltic pump (ATTO Corp.). Right afterwards, the brain was fixed by perfusion of ice-cold 4% PFA into the brain at 5.5 mL/min for 10 min. Subsequently, the whole brain was carefully isolated and washed with ice-cold PBS (pH 7.4) and weighed after removal of the water content.
The right side of the brain obtained as described above was immersed in 4% PFA for 24 h and then moved to ice-cold PBS (pH 7.4) and stored at 4 °C. After removing the PBS, the brain was trimmed coronally to obtain 3-mm slices at the position of Bregma −1.5 mm. […]
A thin slice at Bregma −2.0 mm was obtained and mounted on a glass slide, deparaffinized, and immersed in citrate buffer for 40 min in a water bath at 98 °C to activate the antigen. […] The stained brain tissue was observed by microscopy (Olympus BX51 and DP71), and the NeuN-positive cell numbers in the hippocampus were analyzed using WinROOF (Mitani Corp., Tokyo, Japan). […]

[4] = Appearance of mixed solution of peptide drug and penetratin; type: physicochemical; settings: peptide drug 2.5 mg/mL plus L- or D-penetratin 2.0 mM in PBS pH 6.0 with 0.001% methylcellulose; visual

Substance	insulin level in plasma ([1]; ELISA, mean ± SEM)	brain concentration of insulin ([1]; human insulin ultrasensitive ELISA)	blood glucose level [2]	NeuN-positive hippocampal neuronal cell counts [3]	appearance of solution after mixing [4]
insulin: Recombinant human insulin (27.5 IU/mg), Wako	41.1 ± 11.8 μU/mL	less than the lower detection limit	> 70 mg/dL	no proliferation effect	
HAEGTFTSDVSSYLEGQAAKEFIAWLVKGR-NH2 [GLP-1, glucagon-like peptide-1, incretin peptide, synthesized by Sigma-Genosys]					clear
